6 substances from paper PMC5103873 can be followed below.

The target of assay [1] is arrestin3. Description: single-cell FRET, PTH1R–eYFP / arrestin3–CFP.
The target in assay [2] is arrestin3. Put plainly: BRET, arrestin3–Rluc / PTH1R–eYFP. As to conditions: reference: wild type. Background: BRET reads energy transfer from a luciferase to a nearby fluorophore.
The target of assay [3] is arrestin3. Put plainly: dual-color FRAP of arrestin3–CFP. As to conditions: reference: wild type.
The target in assay [4] is PTH1R PD3 mutant (mutations of clusters 1 and 2 combined), HA- and eYFP-tagged (human) (UniProt Q03431).
Assay [5] concerns the target parathyroid hormone receptor 1 (PTH1R) wild type, N-terminally HA-tagged, C-terminally eYFP-labelled (human) (UniProt Q03431).
Where [6] appears, read: sites S489,S491,S492,S493,S495,S501,T503,S504,T506.

“PTH1R (parathyroid hormone receptor 1) (from UniProt Q03431) 100 nM PTH(1–34)”: the other: increase in FRET in the assay with arrestin3 [1] (reference: before agonist) was found to be 24.8%.
“PTH1R (parathyroid hormone receptor 1) (from UniProt Q03431) PD1 (cluster 1 S/T to Ala)” returned a percent of reference (% of WT maximum BRET) in the assay with arrestin3 [2] (sites S489,S491,S492,S493,S495) of 80.8. For the same substance, the “other: arrestin3 recovery after photobleaching” value (from here on “other: arrestin3 recovery”) with arrestin3 [3] (sites S489,S491,S492,S493,S495) was “same; reference 19.07 ± 0.68–23.94 ± 0.86”. The substance also had an other: reduction of FRET signal vs WT with arrestin3 [1] (reference: wild type, sites S489,S491,S492,S493,S495) of 42.1%.
Consider “PTH1R (parathyroid hormone receptor 1) (from UniProt Q03431) PD2 (cluster 2 S/T to Ala)”, for which the percent of reference (% of WT maximum BRET) with arrestin3 [2] (sites S501,T503,S504,T506) was determined as 66.9. Moreover, in the assay with arrestin3 [3] (sites S501,T503,S504,T506), the “other: arrestin3 recovery” value is recorded as “weaker; reference 19.07 ± 0.68–23.94 ± 0.86”.
For the substance “PTH1R (parathyroid hormone receptor 1) (from UniProt Q03431) PD3 (clusters 1 and 2 S/T to Ala)”, in the assay with arrestin3 [2] (setting [6]), the percent of reference (% of WT maximum BRET) was 46.6. Moreover, in the assay with arrestin3 [3] (setting [6]), the “other: arrestin3 recovery” value is given as “weaker; reference 19.07 ± 0.68–23.94 ± 0.86”.
On to “PTH1R (parathyroid hormone receptor 1) (from UniProt Q03431) T503A, S504A”, for which the “other: arrestin3 recovery” value in the assay with arrestin3 [3] (sites T503,S504) is given as “weaker; reference 19.07 ± 0.68–23.94 ± 0.86”. In addition, the “other: agonist-induced FRET change” value with arrestin3 [1] (reference: wild type, sites T503,S504) is given as “weaker; reference 24.8 ± 12.7”.
For the substance PTH(1–34) (peptide), the pEC50 of PTH(1–34) for cAMP accumulation (HTRF) in HEK293 cells transfected with HA–PTH1R PD3 (without YFP), 15 min, 100 µM IBMX in assay [4] came to 11.3. The substance also registered a pEC50 of PTH(1–34) for cAMP accumulation (HTRF) in HEK293 cells transfected with HA–PTH1R WT (without YFP), 15 min, 100 µM IBMX in assay [5] of 10.9.
